Measured values from patent US20260234269A1.

Tests used:
[1] = molecular target: Human Galectin-3 protein (Acro Biosystems, GA3-H5129) (human) (UniProt P17931); test: ELISA, hGal3 coated, competitor hTIM3 (FIG. 24)
[2] = molecular target: Human Galectin-3 protein (Acro Biosystems, GA3-H5129) (human) (UniProt P17931); test: ELISA, hGal3 coated, antibody 3 ug/mL, competitor hTIM3
[3] = molecular target: Human Galectin-3 protein (Acro Biosystems, GA3-H5129) (human) (UniProt P17931); test: SPR Biacore T200, antibody captured, Galectin-3 analyte

Human Galectin-3 protein (Acro Biosystems, GA3-H5129) (human), sequence (P17931 2-250): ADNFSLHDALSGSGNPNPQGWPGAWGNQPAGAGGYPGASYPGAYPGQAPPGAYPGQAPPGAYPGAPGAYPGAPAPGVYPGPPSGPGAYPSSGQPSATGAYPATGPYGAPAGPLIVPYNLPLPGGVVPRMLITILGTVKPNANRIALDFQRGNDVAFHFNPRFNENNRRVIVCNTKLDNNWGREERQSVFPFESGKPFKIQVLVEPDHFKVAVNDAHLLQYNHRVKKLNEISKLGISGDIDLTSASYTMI

- reduction of TIM3-GAL3 binding [1]: < 25%
- GAL3-TIM3 Blocking @ 3 ug/mL [2]: 6%
- Kd [3]: 18.4 nM
B1: 9H2.2H1 (antibody, from a related filing, V domains shown)
VH: QVQLQQPGAELVGPGSSVKLSCKASGYTFTNYWIHWVKQRPLQGLEWIGNIDPSDSETHYNQKFKDKATLTVDKSSSTAYMQLSSLTSEDSAVYYCARHGYYDYWGQGTTLTVSS
VL: DIVMTQSHKFMSTSVGDRVSITCKASQDVSTAVAWYQQKPGQSPKLLIYWASTRHTGVPDRFTGSGSGTDYTLTISSVQAEDLALYYCQQHYTTPLTFGAGTKLELKR
